B1: PTS system glucose-specific EIICB component (Escherichia coli (strain K12)), P69786 (parent)
chain: MFKNAFANLQKVGKSLMLPVSVLPIAGILLGVGSANFSWLPAVVSHVMAEAGGSVFANMPLIFAIGVALGFTNNDGVSALAAVVAYGIMVKTMAVVAPLVLHLPAEEIASKHLADTGVLGGIISGAIAAYMFNRFYRIKLPEYLGFFAGKRFVPIISGLAAIFTGVVLSFIWPPIGSAIQTFSQWAAYQNPVVAFGIYGFIERCLVPFGLHHIWNVPFQMQIGEYTNAAGQVFHGDIPRYMAGDPTAGKLSGGFLFKMYGLPAAAIAIWHSAKPENRAKVGGIMISAALTSFLTGITEPIEFSFMFVAPILYIIHAILAGLAFPICILLGMRDGTSFSHGLIDFIVLSGNSSKLWLFPIVGIGYAIVYYTIFRVLIKALDLKTPGREDATEDAKATGTSEMAPALVAAFGGKENITNLDACITRLRVSVADVSKVDQAGLKKLGAAGVVVAGSGVQAIFGTKSDNLKTEMDEYIRNH
partner: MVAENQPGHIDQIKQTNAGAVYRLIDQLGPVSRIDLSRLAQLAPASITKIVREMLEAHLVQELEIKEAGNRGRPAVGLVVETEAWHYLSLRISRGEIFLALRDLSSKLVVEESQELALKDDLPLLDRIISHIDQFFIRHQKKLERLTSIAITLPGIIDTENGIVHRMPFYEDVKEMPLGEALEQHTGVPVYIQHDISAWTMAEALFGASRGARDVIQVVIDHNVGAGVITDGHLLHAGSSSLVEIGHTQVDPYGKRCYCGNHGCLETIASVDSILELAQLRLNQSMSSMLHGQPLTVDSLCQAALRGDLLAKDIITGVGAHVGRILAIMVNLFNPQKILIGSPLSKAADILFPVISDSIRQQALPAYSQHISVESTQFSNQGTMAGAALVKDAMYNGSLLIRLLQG

In this test the parent is B1. To be noted: with mlc_ecoli mlc.
Turning to MFKNAFANLQKVGKSLMLPVSVLPIAGILLGVGSANFSWLPAVVSHVMAEAGGSVFANMPLIFAIGVALGFTNNDGVSALAAVVAYGIMVKTMAVVAPLVLHLPAEEIASKHLADTGVLGGIISGAIAAYMFNRFYRIKLPEYLGFFAGKRFVPIISGLAAIFTGVVLSFIWPPIGSAIQTFSQWAAYQNPVVAFGIYGFIERCLVPFGLHHIWNVPFQMQIGEYTNAAGQVFHGDIPRYMAGDPTAGKLSGGFLFKMYGLPAAAIAIWHSAKPENRAKVGGIMISAALTSFLTGITEPIEFSFMFVAPILYIIHAILAGLAFPICILLGMRDGTSFSHGLIDFIVLSGNSSKLWLFPIVGIGYAIVYYTIFRVLIKALDLKTPGREDATEDAKATGTSEMAPALVAAFGGKENITNLDACITRLRVSVADVSKVDQAGLKKLGAAGVVVAGSGVAAIFGTKSDNLKTEMDEYIRNH [Q456A], the “effect of a mutation on the interaction” value is recorded as “disrupting interaction”. As to MFKNAFANLQKVGKSLMLPVSVLPIAGILLGVGSANFSWLPAVVSHVMAEAGGSVFANMPLIFAIGVALGFTNNDGVSALAAVVAYGIMVKTMAVVAPLVLHLPAEEIASKHLADTGVLGGIISGAIAAYMFNRFYRIKLPEYLGFFAGKRFVPIISGLAAIFTGVVLSFIWPPIGSAIQTFSQWAAYQNPVVAFGIYGFIERCLVPFGLHHIWNVPFQMQIGEYTNAAGQVFHGDIPRYMAGDPTAGKLSGGFLFKMYGLPAAAIAIWHSAKPENRAKVGGIMISAALTSFLTGITEPIEFSFMFVAPILYIIHAILAGLAFPICILLGMRDGTSFSHGLIDFIVLSGNSSKLWLFPIVGIGYAIVYYTIFRVLIKALDLKTPGREDATEDAKATGTSEMAPALVAAFGGKENITNLDACITRLRVSVADVSKVDQAGLKKLGAAGVQVAGSGVQAIFGTKSDNLKTEMDEYIRNH [V449Q], the “effect of a mutation on the interaction” value is listed as “disrupting interaction”.

Regarding MFKNAFANLQKVGKSLMLPVSVLPIAGILLGVGSANFSWLPAVVSHVMAEAGGSVFANMPLIFAIGVALGFTNNDGVSALAAVVAYGIMVKTMAVVAPLVLHLPAEEIASKHLADTGVLGGIISGAIAAYMFNRFYRIKLPEYLGFFAGKRFVPIISGLAAIFTGVVLSFIWPPIGSAIQTFSQWAAYQNPVVAFGIYGFIERCLVPFGLHHIWNVPFQMQIGEYTNAAGQVFHGDIPRYMAGDPTAGKLSGGFLFKMYGLPAAAIAIWHSAKPENRAKVGGIMISAALTSFLTGITEPIEFSFMFVAPILYIIHAILAGLAFPICILLGMRDGTSFSHGLIDFIVLSGNSSKLWLFPIVGIGYAIVYYTIFRVLIKALDLKTPGREDATEDAKATGTSEMAPALVAAFGGKENITNLDACITRLRVSVADVSKVDQAGLKKLGAAGVVVFGSGVQAIFGTKSDNLKTEMDEYIRNH [A451F], the “effect of a mutation on the interaction” value is on record as “decreasing interaction”.
